Molecular target: histone H3 (Xenopus laevis, recombinant full length) (Xenopus laevis) (UniProt P84233)
Assay: cross-linking; BS3 crosslinker in 1.1 M NaCl, 20 mM HEPES (pH 7.5), 10 mM DTT; ~10 uM RbAp46, H3/H4 or RbAp46/H3/H4; room temperature, 30 min; NuPAGE, Coomassie and blots with anti-H3 and anti-H4

stoichiometry N: 2
Substance: histone H3 (Xenopus laevis, recombinant full length) (from UniProt P84233 1-136) (natural protein)

Reference: publication PMC2572730, “Structural Basis for the Recognition of Histone H4 by the Histone-Chaperone RbAp46” (Structure(London, England:1993), 2008)
